Results on 1 molecule are retold here after PMC10352137, “Readout of histone methylation by Trim24 locally restricts chromatin opening by p53” (Nature Structural & Molecular Biology, 2023).

This assay addresses T1, Flag-tagged TRIM24 N-terminal domain (amino acids 1-473) (mouse, UniProt Q64127 1-473).
T1 construct: TRIM24, mouse, N-terminal domain, amino acids 1-473; the recombinant constructs are numbered to residue 1051; also called amino-terminal region of the Trim24 protein; not shown: Flag, N-terminal, kept
T1 sequence (looked up): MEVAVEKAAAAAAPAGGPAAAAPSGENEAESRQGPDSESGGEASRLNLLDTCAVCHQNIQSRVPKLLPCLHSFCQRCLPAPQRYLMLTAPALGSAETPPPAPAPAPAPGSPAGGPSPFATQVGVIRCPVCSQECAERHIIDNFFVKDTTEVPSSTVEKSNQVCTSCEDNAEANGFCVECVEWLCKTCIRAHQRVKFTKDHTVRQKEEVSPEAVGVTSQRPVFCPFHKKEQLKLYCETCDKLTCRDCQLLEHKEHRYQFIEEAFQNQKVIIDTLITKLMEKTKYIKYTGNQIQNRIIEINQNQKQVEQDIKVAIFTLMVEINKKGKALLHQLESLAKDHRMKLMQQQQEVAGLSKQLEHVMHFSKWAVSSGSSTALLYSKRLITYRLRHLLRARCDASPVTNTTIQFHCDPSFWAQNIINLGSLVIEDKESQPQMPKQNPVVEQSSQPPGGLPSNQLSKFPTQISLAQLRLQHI
Briefly: pull-down; Flag-tagged TRIM24 domains (0.25 nmol) mixed with Strep-tagged p53 in equimolar ratios, anti-Flag or Strep-Tactin beads, 2 h at 4 °C, 50 mM HEPES pH 8.0, 150 mM NaCl; stained gel. The settings on record: both partners purified.

B1: Strep-tagged mouse full-length p53 (natural protein, UniProt P02340 1-390, looked up)
chain: MTAMEESQSDISLELPLSQETFSGLWKLLPPEDILPSPHCMDDLLLPQDVEEFFEGPSEALRVSGAPAAQDPVTETPGPVAPAPATPWPLSSFVPSQKTYQGNYGFHLGFLQSGTAKSVMCTYSPPLNKLFCQLAKTCPVQLWVSATPPAGSRVRAMAIYKKSQHMTEVVRRCPHHERCSDGDGLAPPQHLIRVEGNLYPEYLEDRQTFRHSVVVPYEPPEAGSEYTTIHYKYMCNSSCMGGMNRRPILTIITLEDSSGNLLGRDSFEVRVCACPGRDRRTEEENFRKKEVLCPELPPGSAKRALPTCTSASPPQKKKPLDGEYFTLKIRGRKRFEMFRELNEALELKDAHATEESGDSRAHSSYLKTKKGQSTSRHKKTMVKKVGPDSD
notes: p53, mouse, full length; also called purified p53; Strep-tagged p53 full-length protein; source: Sf9 (Bac-to-Bac), purified (Strep-Tactin, heparin ion exchange, Superose 6 SEC); not shown: Strep-tag, N-terminal, kept
Turning to B1, the binding result is reported as “binds”.
